The results in this text go back to US20250312475A1.

Where two headings read alike, the source gives them in different places.

Assay [1] addresses HIV-1 Env of 20 pseudotyped viruses representing 10 different HIV-1 clades. Kind of assay: cell-based or functional assay.
Assay [2] has the same target. As to the kind of experiment: cell-based or functional assay. This is another data set of the same source.

B1: V1/V2 directed Ab “b” (antibody, V domains shown)
VH: QVQLVESGGGVVQPGTSLRLSCAASQFRFDGYGMHWVRQAPGKGLEWVASISHDGIKKYHAEKVWGRFTISRDNSKNTLYLQMNSLRPEDTALYYCAKDLREDECEEWWSDYYDFGKQLPCAKSRGGLVGIADNWGQGTMVTVSS
VL: QSVLTQPPSVSAAPGQKVTISCSGNTSNIGNNFVSWYQQRPGRAPQLLIYETDKRPSGIPDRFSASKSGTSGTLAITGLQTGDEADYYCATWAASLSSARVFGTGTKVIVL
In assay [1], B1 came in with a % VS Neutralized: IC80 < 1 µg/mL (of 20 viruses) of 45%, a % VS Neutralized: IC80 < 50 µg/mL (of 20 viruses) of 45%, a Geometric Mean (IC80) of 0.039 µg/mL and a Total VS Neutralized: IC80 < 1 µg/mL (of 20 viruses) of 9 viruses. In assay [1], this molecule gave a Total VS Neutralized: IC80 < 50 µg/mL (of 20 viruses) of 9 viruses.

B2: V1/V2 directed Ab “a” (antibody, V domains shown)
VH: QVHLTQSGPEVRKPGTSVKVSCKAPGNTLKTYDLHWVRSVPGQGLQWMGWISHEGDKKVIVERFKAKVTIDWDRSTNTAYLQLSGLTSGDTAVYYCAKGSKHRLRDYALYDDDGALNWAVDVDYLSNLEFWGQGTAVTVSS
VL: DFVLTQSPHSLSVTPGESASISCKSSHSLIHGDRNNYLAWYVQKPGRSPQLLIYLASSRASGVPDRFSGSGSDKDFTLKISRVETEDVGTYYCMQGRESPWTFGQGTKVDIK
With B2, in assay [2], the % VS Neutralized: IC80 < 1 µg/mL (of 20 viruses) came to 45%, the % VS Neutralized: IC80 < 50 µg/mL (of 20 viruses) was 55%, the Geometric Mean (IC80) worked out at 0.094 µg/mL and the Total VS Neutralized: IC80 < 1 µg/mL (of 20 viruses) came to 9 viruses. Further, the Total VS Neutralized: IC80 < 50 µg/mL (of 20 viruses) in assay [2] came out at 11 viruses.

B3: Binding Protein 2 (protein)
light 1: DFVLTQSPHSLSVTPGESASISCKSSHSLIHGDRNNYLAWYVQKPGRSPQLLIYLASSRASGVPDRFSGSGSDKDFTLKISRVETEDVGTYYCMQGRESPWTFGQGTKVDIKDKTHTASELTQDPAVSVALKQTVTITCRGDSLRSHYASWYQKKPGQAPVLLFYGKNNRPSGIPDRFSGSASGNRASLTITGAQAEDEADYYCSSRDKSGSRLSVFGGGTKLTVLDKTHTRTVAAPSVFIFPPSDEQLKSGTASVVCLLNNFYPREAKVQWKVDNALQSGNSQESVTEQDSKDSTYSLSSTLTLSKADYEKHKVYACEVTHQGLSSPVTKSFNRGEC
heavy 1: EVRLVESGGGLVKPGGSLRLSCSASGFDFDNAWMTWVRQPPGKGLEWVGRITGPGEGWSVDYAESVKGRFTISRDNTKNTLYLEMNNVRTEDTGYYFCARTGKYYDFWSGYPPGEEYFQDWGQGTLVIVSSDKTHTQVHLTQSGPEVRKPGTSVKVSCKAPGNTLKTYDLHWVRSVPGQGLQWMGWISHEGDKKVIVERFKAKVTIDWDRSTNTAYLQLSGLTSGDTAVYYCAKGSKHRLRDYALYDDDGALNWAVDVDYLSNLEFWGQGTAVTVSSDKTHTASTKGPSVFPLAPSSKSTSGGTAALGCLVKDYFPEPVTVSWNSGALTSGVHTFPAVLQSSGLYSLSSVVTVPSSSLGTQTYICNVNHKPSNTKVDKKVEPKSCDKTHTCPPCPAPELLGGPSVFLFPPKPKDTLMISRTPEVTCVVVDVSHEDPEVKFNWYVDGVEVHNAKTKPREEQYNSTYRVVSVLTVLHQDWLNGKEYKCKVSNKALPAPIEKTISKAKGQPREPQVYTLPPCRDELTKNQVSLWCLVKGFYPSDIAVEWESNGQPENNYKTTPPVLDSDGSFFLYSKLTVDKSRWQQGNVFSCSVLHEALHSHYTQKSLSLSPG
heavy 2: RAHLVQSGTAMKKPGASVRVSCQTSGYTFTAHILFWFRQAPGRGLEWVGWIKPQYGAVNFGGGFRDRVTLTRDVYREIAYMDIRGLKPDDTAVYYCARDRSYGDSSWALDAWGQGTTVVVSAASTKGPSVFPLAPSSKSTSGGTAALGCLVKDYFPEPVTVSWNSGALTSGVHTFPAVLQSSGLYSLSSVVTVPSSSLGTQTYICNVNHKPSNTKVDKKVEPKSCDKTHTCPPCPAPELLGGPSVFLFPPKPKDTLMISRTPEVTCVVVDVSHEDPEVKFNWYVDGVEVHNAKTKPREEQYNSTYRVVSVLTVLHQDWLNGKEYKCKVSNKALPAPIEKTISKAKGQPREPQVCTLPPSRDELTKNQVSLSCAVKGFYPSDIAVEWESNGQPENNYKTTPPVLDSDGSFFLVSKLTVDKSRWQQGNVFSCSVLHEALHSHYTQKSLSLSPG
light 2: YIHVTQSPSSLSVSIGDRVTINCQTSQGVGSDLHWYQHKPGRAPKLLIHHTSSVEDGVPSRFSGSGFHTSFNLTISDLQADDIATYYCQVLQFFGRGSRLHIKRTVAAPSVFIFPPSDEQLKSGTASVVCLLNNFYPREAKVQWKVDNALQSGNSQESVTEQDSKDSTYSLSSTLTLSKADYEKHKVYACEVTHQGLSSPVTKSFNRGEC
In assay [2], B3 gave a % VS Neutralized: IC80 < 1 µg/mL (of 20 viruses) of 65%, a % VS Neutralized: IC80 < 50 µg/mL (of 20 viruses) of 90%, a Geometric Mean (IC80) of 0.222 µg/mL and a Median IC80 of 0.375 µg/mL. In assay [2], this molecule gave a Total VS Neutralized: IC80 < 1 µg/mL (of 20 viruses) of 13 viruses and a Total VS Neutralized: IC80 < 50 µg/mL (of 20 viruses) of 18 viruses.

B4: Binding Protein 3 (protein)
light 1: ASELTQDPAVSVALKQTVTITCRGDSLRSHYASWYQKKPGQAPVLLFYGKNNRPSGIPDRFSGSASGNRASLTITGAQAEDEADYYCSSRDKSGSRLSVFGGGTKLTVLDKTHTDFVLTQSPHSLSVTPGESASISCKSSHSLIHGDRNNYLAWYVQKPGRSPQLLIYLASSRASGVPDRFSGSGSDKDFTLKISRVETEDVGTYYCMQGRESPWTFGQGTKVDIKDKTHTRTVAAPSVFIFPPSDEQLKSGTASVVCLLNNFYPREAKVQWKVDNALQSGNSQESVTEQDSKDSTYSLSSTLTLSKADYEKHKVYACEVTHQGLSSPVTKSFNRGEC
heavy 1: QVHLTQSGPEVRKPGTSVKVSCKAPGNTLKTYDLHWVRSVPGQGLQWMGWISHEGDKKVIVERFKAKVTIDWDRSTNTAYLQLSGLTSGDTAVYYCAKGSKHRLRDYALYDDDGALNWAVDVDYLSNLEFWGQGTAVTVSSDKTHTEVRLVESGGGLVKPGGSLRLSCSASGFDFDNAWMTWVRQPPGKGLEWVGRITGPGEGWSVDYAESVKGRFTISRDNTKNTLYLEMNNVRTEDTGYYFCARTGKYYDFWSGYPPGEEYFQDWGQGTLVIVSSDKTHTASTKGPSVFPLAPSSKSTSGGTAALGCLVKDYFPEPVTVSWNSGALTSGVHTFPAVLQSSGLYSLSSVVTVPSSSLGTQTYICNVNHKPSNTKVDKKVEPKSCDKTHTCPPCPAPELLGGPSVFLFPPKPKDTLMISRTPEVTCVVVDVSHEDPEVKFNWYVDGVEVHNAKTKPREEQYNSTYRVVSVLTVLHQDWLNGKEYKCKVSNKALPAPIEKTISKAKGQPREPQVYTLPPCRDELTKNQVSLWCLVKGFYPSDIAVEWESNGQPENNYKTTPPVLDSDGSFFLYSKLTVDKSRWQQGNVFSCSVLHEALHSHYTQKSLSLSPG
heavy 2: B3 heavy 2
light 2: B3 light 2
B4: in assay [2], the % VS Neutralized: IC80 < 1 µg/mL (of 20 viruses) came out at 60%, the % VS Neutralized: IC80 < 50 µg/mL (of 20 viruses) amounted to 90%, the Geometric Mean (IC80) was found to be 0.287 µg/mL and the Median IC80 was 0.469 µg/mL. In assay [2], this molecule gave a Total VS Neutralized: IC80 < 1 µg/mL (of 20 viruses) of 12 viruses and a Total VS Neutralized: IC80 < 50 µg/mL (of 20 viruses) of 18 viruses.
